Laboratory results reported in patent US12662540B2, “Compositions and methods for inhibition of MICA/B shedding” (DANA-FARBER CANCER INSTITUTE, INC., priority 2017, dated 2026).
Entries after “also recorded” stand apart in the source; their conditions may differ.

What was measured:
[1] = biological target: NKG2D binding to MICA (Homo sapiens, UniProt Q29983, C59Y/G229S/K148E/K196E/M152V/Q274R/S238T/T236I/T47A/W233R); experiment: Bead assay for NKG2D receptor binding to MICA; conditions: MICA (allele 008) beads, human NKG2D-Fc dimer 10 μg/ml
NKG2D binding to MICA, sequence (Q29983 24-307 T47A/C59Y/K148E/M152V/K196E/G229S/W233R/T236I/S238T/Q274R): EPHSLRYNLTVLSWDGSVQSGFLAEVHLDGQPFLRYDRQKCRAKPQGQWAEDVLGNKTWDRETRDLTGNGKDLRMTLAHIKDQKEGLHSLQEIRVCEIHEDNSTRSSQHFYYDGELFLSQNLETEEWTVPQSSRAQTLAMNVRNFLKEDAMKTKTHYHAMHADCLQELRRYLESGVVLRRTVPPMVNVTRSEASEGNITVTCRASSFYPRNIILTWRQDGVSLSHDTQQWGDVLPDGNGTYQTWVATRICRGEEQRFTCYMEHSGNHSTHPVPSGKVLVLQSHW
Method: Streptavidin-conjugated C4 beads (BD Pharmingen) were incubated for 2 hours with MICA biotinylated at a C-terminal BirA site (200 ng of MICA per 10,000 beads). Beads were then washed with PBS containing 1% FBS. For the NKG2D receptor binding assay, chimeric human NKG2D-Fc dimer (1299-NK-050, R&D Systems) was conjugated with Alexa^488 (A10468, Molecular Probes) and used at 10 μg/ml. Binding of murine NKG2D to human MICA was measured using NKG2D-Fc dimers (10 μg/ml) followed by an Alexa^488-conjugated anti-human IgG (Molecular Probes) that bound to the Fc region of the NKG2D-Fc dimer. MICA antibodies were also used as competitors for NKG2D dimer binding at concentrations of 10, 30 and 100 μg/ml. In these assays, NKG2D dimer and MICA antibodies were co-incubated with biotinylated MICA*008-conjugated beads.

[2] = tested on: CT26-MICA; experiment: CT26 metastasis model; format: in vivo, Balb/c mice; conditions: antibody days 1, 2, 7, 14; count day 21
Method: (§1) Balb/c wild type mice were injected intravenously with 1×10^6 CT26-MICA, and treated with 7C6-mIgG2b or MPC-11 (isotype) administered intraperitoneally on days 1, 2, 7, and 14. Euthanasia was performed on day 21, followed by lung perfusion with 30% Indian ink through the trachea and fixation in Fekete's fixative. That procedure stains the lungs in black, while the metastases remain white, enabling counting of metastases under a stereomicroscope (24).
as §1, with “stereomicroscope.” for “stereomicroscope (24).”

[3] = tested on: B16F10-MICA cells; experiment: B16F10 metastasis model in immunocompetent mice; format: in vivo, C57BL/6 mice
Method: The B16F10 cells were transduced with the luciferase-based lentiviral vector to express MICA. B16F10-MICA cells (5×10^5) were injected intravenously into C57BL/6 mice through the tail vein. Fewer tumor cells (4×10^5) were injected into NK cell-deficient mice given that the absence of NK cells results in a very large number of metastases. 7C6 or isotype control antibodies (MPC-11 or C1184, BioXcell, which have mIgG2b and mIgG2a isotypes, respectively) were administered intraperitoneally on days 1, 2, 7 and 10 at a dose of 200 μg per mouse. Antibody blockade and depletion were performed as described previously (24). For antibody-based depletion of CD8 T cells or NK cells, 100 μg per mouse of anti-CD8 (5358, BioXcell), anti-NK1.1 (PK136, BioXcell), and anti-asialo(as)GM1 (Wako Chemicals) were given on days −1, 0, and 7. For antibody blockade, anti-NKG2D (HMG2D, BioXcell) or control IgG (MOPC-21) were given at 200 μg per mouse on days −1, 0, 5, 7 and 10. Blood samples were collected at multiple time points by retro-orbital bleeding under isoflurane anesthesia. Mice were euthanized by CO2 inhalation, lungs were perfused with PBS and fixed in formalin solution, and the number of superficial metastases was counted under a stereomicroscope. Histology was performed by the Rodent Histopathology Core of the Dana-Farber/Harvard Cancer Center using lungs that had not been perfused with PBS.
Macrophages were depleted by intravenous injection of 0.2 ml clodronate liposomes (Encapsula NanoSciences LLC). In the humanized and B16F10-MICA metastasis models, 0.2 ml of clodronate liposomes or control liposomes were injected i.v. (on the same day of tumor cell inoculation and then once weekly).

[4] = tested on: A375 melanoma cell line; experiment: In vitro assay for inhibition of MICA shedding, A375 cells (sandwich ELISA of supernatant); format: cell-based, human; conditions: A375 cells treated for 24 hours
Method: Tumor cells (5×10^4 or 1×10^5 per well, depending on the cell line) were cultured for 24 to 72 hours in 96-well plates (flat-bottom plates for adherent cell lines, U-bottom plates for suspension cell lines). Human and murine cell lines were cultivated in RPMI-1640 or DMEM media, respectively, supplemented with 10% fetal bovine serum (FBS), 1× Glutamax® (Gibco), and 1× Penicillin and Streptomycin (Gibco). MICA or control antibodies were added at different concentrations, and shed MICA/B was then detected in supernatants by ELISA using the Human MICA ELISA kit (Ab59569, Abcam) or Human MICB DuoSet ELISA kit (DY1599, R&D Systems), using the procedures recommended by the manufacturers. For both assays, standard curves were generated using recombinant MICA*008 or MICB*005 extracellular domain proteins that had been expressed using the Baculovirus system.

[5] = tested on: RPMI-8226 cell line; experiment: Proteasome inhibitor combination with MICA/B antibody, multiple myeloma cell lines; format: cell-based, human
[6] = tested on: human NK cells; experiment: Intracellular interferon-γ production by NK cells co-cultured with tumor cells; format: cell-based; conditions: co-culture with tumor cells, antibody 10 μg/ml
Method: NK cells were co-cultured for 6 hours at a ratio of 5:1 with tumor cells in the presence of Brefeldin-A (Biolegend). After the incubation time, Fc receptors were blocked, cells stained with NK cell markers, stained further with a dead cell marker (Zombie Yellow, Biolegend), and subsequently processed for intracellular interferon-γ labeling. Briefly, cells were fixed with BD Cytofix/Cytoperm™ Fixation and Permeabilization Solution (BD Pharmingen), permeabilized with Permeabilization Wash Buffer (Biolegend), and stained with APC-conjugated anti-human interferon-γ (4S.B3, Biolegend) or appropriate isotype control. Fluorescence spectra were acquired using a LSR Fortessa flow cytometer and analyzed by FlowJo.

B1: 7C6: monoclonal antibody from mice immunized with recombinant MICA α3 domain; parental mIgG2b; VH SEQ ID NO: 7, VL SEQ ID NO: 8 (antibody)
VH: QIQLVQSGPELKKPGETVKVSCKASGYMFTNYAMNWVKQAPEKGLKWMGWINTHTGDPTYADDFKGRIAFSLETSASTAYLQINNLKNEDTATYFCVRTYGNYAMDYWGQGTSVTVSSAKTTAPSVYPLAPVCGDTTGSSVTLGCLVKGYFPEPVTLTWNSGSLSSGVHTFPAVLQSDLYTLSSSVTVTSS
VL: DIQMTQTTSSLSASLGDRVTISCSASQDISNYLNWYQQKPDGTVKLLIYDTSILHLGVPSRFSGSGSGTDYSLTISNLEPEDIATYYCQQYSKFPRTFGGGTTLEIK
modifications: mAb 7C6 heavy chain amino acid sequence; mAb 7C6 light chain amino acid sequence
inhibition of NKG2D receptor binding to MICA [1]: do not inhibit NKG2D receptor binding | activity against CT26-MICA lung metastases [2]: demonstrated efficacy in a lung metastasis model | shed MICA in serum ([3]; B16F10-MICA i.v. in C57BL/6 mice): undetectable; also recorded: reduced shed MICA in the sera | therapeutic activity against lung metastases after NK cell or CD8 T cell depletion ([3]; anti-asGM1, anti-NK1.1 or anti-CD8β): NK cells, but not CD8 T cells, were essential for the therapeutic activity | therapeutic activity in Prf1−/− and Ifng−/− mice ([3]; lung metastases day 14): therapeutic efficacy was lost in perforin (Prf1) but not IFNγ (Ifng) deficient mice; also recorded: Perforin but not interferon-γ expression is required for therapeutic activity | MICA shedding (shed MICA released into supernatant) [4]: inhibit MICA release into the supernatant | human NK cell cytotoxicity against RPMI-8226, bortezomib plus antibody ([5]; 1 nM bortezomib, versus PBS+Isotype): Human NK cell cytotoxicity is increased | surface MICA/B, antibody plus proteasome inhibitor ([5]; RPMI-8226, 24 hours, 10 mg/ml 7C6): expresses higher levels of surface MICA/B | IFNγ (cytokine) production by human NK cells [6]: increases NK cell cytotoxicity and cytokine production
